Experimental data reported in publication PMC5722929.

Target: AMPA glutamate receptor subunit GluA1 (mouse (endogenous in primary hippocampal neurons)) (UniProt P23818)
Assay: co-IP; endogenous proteins in lysates of hippocampal neurons treated with vehicle (CTR) or IPA (insulin 20 nM + palmitic acid 0.2 mM); IP buffer KCl 50 mM, Tris-HCl 50 mM pH 8, EDTA 10 mM, 1% Nonidet P-40; specific antibody or IgG (negative control) with protein G-sepharose 4B, 6 h at 4 °C; six washes; immunoblot

Sequence of UniProt P23818 (P23818 19-907): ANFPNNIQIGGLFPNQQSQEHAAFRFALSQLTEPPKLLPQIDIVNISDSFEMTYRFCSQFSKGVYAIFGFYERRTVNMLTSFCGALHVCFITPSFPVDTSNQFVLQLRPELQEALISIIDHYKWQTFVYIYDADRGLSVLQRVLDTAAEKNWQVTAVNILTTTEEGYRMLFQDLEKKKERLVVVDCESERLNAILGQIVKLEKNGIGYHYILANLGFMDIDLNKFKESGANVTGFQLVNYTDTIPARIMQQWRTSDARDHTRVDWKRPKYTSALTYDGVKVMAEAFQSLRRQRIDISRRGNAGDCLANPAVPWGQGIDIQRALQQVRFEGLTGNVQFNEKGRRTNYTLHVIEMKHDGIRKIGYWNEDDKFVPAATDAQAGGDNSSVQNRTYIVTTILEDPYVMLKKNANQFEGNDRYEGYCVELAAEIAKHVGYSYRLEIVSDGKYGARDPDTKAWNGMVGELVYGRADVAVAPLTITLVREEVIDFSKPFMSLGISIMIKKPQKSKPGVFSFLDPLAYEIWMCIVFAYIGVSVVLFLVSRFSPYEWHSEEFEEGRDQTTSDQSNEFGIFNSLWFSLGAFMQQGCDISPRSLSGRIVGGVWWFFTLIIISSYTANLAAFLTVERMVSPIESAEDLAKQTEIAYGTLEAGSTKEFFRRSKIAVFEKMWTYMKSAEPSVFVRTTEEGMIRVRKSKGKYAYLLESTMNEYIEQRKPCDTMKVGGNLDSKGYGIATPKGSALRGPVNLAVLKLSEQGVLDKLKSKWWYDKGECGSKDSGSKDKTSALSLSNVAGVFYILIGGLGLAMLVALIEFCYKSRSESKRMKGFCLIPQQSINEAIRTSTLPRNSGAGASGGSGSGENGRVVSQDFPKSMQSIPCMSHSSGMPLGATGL

“actin (from UniProt P60710 1-375) (natural protein)” showed a change of the co-precipitated amount after IPA against vehicle control of -74%.
